Data published in publication PMC1762332, “Catalases Are NAD(P)H-Dependent Tellurite Reductases” (PLoS ONE, 2006).

Substrate: O=[Te](O)O
Assay: purified protein
Conditions: NADPH 10 mM (50 µl of 0.2 M in 1 ml), Tris-HCl pH 8.0 (50 mM), aerobic

B1: bovine liver catalase (Bos taurus) (protein)
chain: ADNRDPASDQMKHWKEQRAAQKPDVLTTGGGNPVGDKLNSLTVGPRGPLLVQDVVFTDEMAHFDRERIPERVVHAKGAGAFGYFEVTHDITRYSKAKVFEHIGKRTPIAVRFSTVAGESGSADTVRDPRGFAVKFYTEDGNWDLVGNNTPIFFIRDALLFPSFIHSQKRNPQTHLKDPDMVWDFWSLRPESLHQVSFLFSDRGIPDGHRHMNGYGSHTFKLVNANGEAVYCKFHYKTDQGIKNLSVEDAARLAHEDPDYGLRDLFNAIATGNYPSWTLYIQVMTFSEAEIFPFNPFDLTKVWPHGDYPLIPVGKLVLNRNPVNYFAEVEQLAFDPSNMPPGIEPSPDKMLQGRLFAYPDTHRHRLGPNYLQIPVNCPYRARVANYQRDGPMCMMDNQGGAPNYYPNSFSAPEHQPSALEHRTHFSGDVQRFNSANDDNVTQVRTFYLKVLNEEQRKRLCENIAGHLKDAQLFIQKKAVKNFSDVHPEYGSRIQALLDKYNEEKPKNAVHTYVQHGSHLSAREKANL
- Km: 900 µM
